Series [1] relates to HeLa Kyoto. Nature of the series: melting temperature (median over replicates), in situ; higher = more thermally stable.
The subject of series [2] is HeLa Kyoto. Nature of the series: solubility change mitosis vs G1/S (difference of NP-40 vs SDS log2 ratios) (log2 ratio difference); higher = more soluble in mitosis.
In series [3] the test system is HeLa Kyoto. Nature of the series: thermal stability score vs G1/S (z-score of summed log2 fold changes over temperatures); higher = more thermally stable than in G1/S.
Series [4] relates to HeLa Kyoto. Nature of the series: solubility in G1/S (NP-40 vs SDS abundance) (log2 ratio); higher = more soluble. Conditions: cell cycle stage: G1/S.
[5] abbreviates: cell cycle stage: early G1 (4.5 h after nocodazole release).
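For melting temperature (median over replicates), in situ in this document: HeLa Kyoto cells synchronized by double thymidine or nocodazole block, proteins quantified by TMT10plex mass spectrometry, three independent biological replicates.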
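For solubility change mitosis vs G1/S (difference of NP-40 vs SDS log2 ratios) in this document: synchronized HeLa Kyoto cells (double thymidine block for G1/S, nocodazole release for mitosis), protein amounts in NP-40 versus SDS lysates quantified by mass spectrometry, three biological replicates.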
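For solubility in G1/S (NP-40 vs SDS abundance) in this document: HeLa Kyoto cells arrested at G1/S by double thymidine block, proteins quantified by TMT10plex mass spectrometry in mild NP-40 versus SDS extracts, three biological replicates.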
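For thermal stability score vs G1/S (z-score of summed log2 fold changes over temperatures) in this document: synchronized HeLa Kyoto cells, proteins quantified by TMT10plex mass spectrometry, three biological replicates, mitosis taken 0.5 h after nocodazole release, G1/S directly after double thymidine block.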

Consider “MARLWGALSLWPLWAAVPWGGAAAVGVRACSSTAAPDGVEGPALRRSYWRHLRRLVLGPPEPPFSHVCQVGDPVLRGVAAPVERAQLGGPELQRLTQRLVQVMRRRRCVGLSAPQLGVPRQVLALELPEALCRECPPRQRALRQMEPFPLRVFVNPSLRVLDSRLVTFPEGCESVAGFLACVPRFQAVQISGLDPNGEQVVWQASGWAARIIQHEMDHLQGCLFIDKMDSRTFTNVYWMKVND [PDF]”, for which the melting temperature in series [1] (cell cycle stage: G1/S) is 54.8 °C; in series [1] (cell cycle stage: mitosis) it was 54.9 °C. In addition, in series [2], the “solubility change mitosis (log2)” value is -0.136. In addition, the thermal stability score in series [3] (setting [5]) turned out to be 1.03; in series [3] (cell cycle stage: mitosis) it was 0.625. In series [4], the “solubility in G1/S (log2)” value was 0.308.
As for “MSLLFSRCNSIVTVKKNKRHMAEVNASPLKHFVTAKKKINGIFEQLGAYIQESATFLEDTYRNAELDPVTTEEQVLDVKGYLSKVRGISEVLARRHMKVAFFGRTSNGKSTVINAMLWDKVLPSGIGHTTNCFLRVEGTDGHEAFLLTEGSEEKRSAKTVNQLAHALHQDKQLHAGSLVSVMWPNSKCPLLKDDLVLMDSPGIDVTTELDSWIDKFCLDADVFVLVANSESTLMQTEKHFFHKVSERLSRPNIFILNNRWDASASEPEYMEEVRRQHMERCTSFLVDELGVVDRSQAGDRIFFVSAKEVLNARIQKAQGMPEGGGALAEGFQVRMFEFQNFERRFEECISQSAVKTKFEQHTVRAKQIAEAVRLIMDSLHMAAREQQVYCEEMREERQDRLKFIDKQLELLAQDYKLRIKQITEEVERQVSTAMAEEIRRLSVLVDDYQMDFHPSPVVLKVYKNELHRHIEEGLGRNMSDRCSTAITNSLQTMQQDMIDGLKPLLPVSVRSQIDMLVPRQCFSLNYDLNCDKLCADFQEDIEFHFSLGWTMLVNRFLGPKNSRRALMGYNDQVQRPIPLTPANPSMPPLPQGSLTQEEFMVSMVTGLASLTSRTSMGILVVGGVVWKAVGWRLIALSFGLYGLLYVYERLTWTTKAKERAFKRQFVEHASEKLQLVISYTGSNCSHQVQQELSGTFAHLCQQVDVTRENLEQEIAAMNKKIEVLDSLQSKAKLLRNKAGWLDSELNMFTHQYLQPSR [MFN2]”, the melting temperature in series [1] (cell cycle stage: G1/S) was 50.8 °C; in series [1] (cell cycle stage: mitosis), 51.3 °C. Besides, the “solubility change mitosis (log2)” value in series [2] was -0.043. Further, the thermal stability score in series [3] (setting [5]) was found to be 1.32; in series [3] (cell cycle stage: mitosis), 0.83. The “solubility in G1/S (log2)” value in series [4] was -0.174.
On to “MAAQKDQQKDAEAEGLSGTTLLPKLIPSGAGREWLERRRATIRPWSTFVDQQRFSRPRNLGELCQRLVRNVEYYQSNYVFVFLGLILYCVVTSPMLLVALAVFFGACYILYLRTLESKLVLFGREVSPAHQYALAGGISFPFFWLAGAGSAVFWVLGATLVVIGSHAAFHQIEAVDGEELQMEPV [RABAC1]”, for which the melting temperature in series [1] (cell cycle stage: G1/S) was determined as 59.6 °C; in series [1] (cell cycle stage: mitosis) it was 58.3 °C. Also, the “solubility change mitosis (log2)” value in series [2] was -0.0714. Also, the figures for the thermal stability score in series [3] (setting [5]) and in series [3] (cell cycle stage: mitosis) were -0.0851 and -0.547, respectively. Besides, in series [4], the “solubility in G1/S (log2)” value is -0.392.
KPNA1: the melting temperature was 49 °C in series [1] (cell cycle stage: G1/S) and 49.7 °C in series [1] (cell cycle stage: mitosis). The “solubility change mitosis (log2)” value in series [2] was -0.102. Besides, the thermal stability score in series [3] (setting [5]) was determined as 1.89; in series [3] (cell cycle stage: mitosis), 3.16. In series [4], the “solubility in G1/S (log2)” value turned out to be 0.00375.
With “MLLKTVLLLGHVAQVLMLDNGLLQTPPMGWLAWERFRCNINCDEDPKNCISEQLFMEMADRMAQDGWRDMGYTYLNIDDCWIGGRDASGRLMPDPKRFPHGIPFLADYVHSLGLKLGIYADMGNFTCMGYPGTTLDKVVQDAQTFAEWKVDMLKLDGCFSTPEERAQGYPKMAAALNATGRPIAFSCSWPAYEGGLPPRVNYSLLADICNLWRNYDDIQDSWWSVLSILNWFVEHQDILQPVAGPGHWNDPDMLLIGNFGLSLEQSRAQMALWTVLAAPLLMSTDLRTISAQNMDILQNPLMIKINQDPLGIQGRRIHKEKSLIEVYMRPLSNKASALVFFSCRTDMPYRYHSSLGQLNFTGSVIYEAQDVYSGDIISGLRDETNFTVIINPSGVVMWYLYPIKNLEMSQQ [NAGA]”, the melting temperature in series [1] (cell cycle stage: G1/S) stood at 54.8 °C; in series [1] (cell cycle stage: mitosis) it was 54.5 °C. Also, the “solubility change mitosis (log2)” value in series [2] was -0.171. Further, the thermal stability score in series [3] (setting [5]) is -1.47; in series [3] (cell cycle stage: mitosis), -2.02. Moreover, the “solubility in G1/S (log2)” value in series [4] amounted to 0.254.
For “MLVPLAKLSCLAYQCFHALKIKKNYLPLCATRWSSTSTVPRITTHYTIYPRDKDKRWEGVNMERFAEEADVVIVGAGPAGLSAAVRLKQLAVAHEKDIRVCLVEKAAQIGAHTLSGACLDPGAFKELFPDWKEKGAPLNTPVTEDRFGILTEKYRIPVPILPGLPMNNHGNYIVRLGHLVSWMGEQAEALGVEVYPGYAAAEVLFHDDGSVKGIATNDVGIQKDGAPKATFERGLELHAKVTIFAEGCHGHLAKQLYKKFDLRANCEPQTYGIGLKELWVIDEKNWKPGRVDHTVGWPLDRHTYGGSFLYHLNEGEPLVALGLVVGLDYQNPYLSPFREFQRWKHHPSIRPTLEGGKRIAYGARALNEGGFQSIPKLTFPGGLLIGCSPGFMNVPKIKGTHTAMKSGILAAESIFNQLTSENLQSKTIGLHVTEYEDNLKNSWVWKELYSVRNIRPSCHGVLGVYGGMIYTGIFYWILRGMEPWTLKHKGSDFERLKPAKDCTPIEYPKPDGQISFDLLSSVALSGTNHEHDQPAHLTLRDDSIPVNRNLSIYDGPEQRFCPAGVYEFVPVEQGDGFRLQINAQNCVHCKTCDIKDPSQNINWVVPEGGGGPAYNGM [ETFDH]”, the melting temperature in series [1] (cell cycle stage: G1/S) came to 54.4 °C; in series [1] (cell cycle stage: mitosis), 53.8 °C. Further, the “solubility change mitosis (log2)” value in series [2] was -0.184. Further, the thermal stability score in series [3] (setting [5]) was -0.885; in series [3] (cell cycle stage: mitosis) it was -1.65. Further, the “solubility in G1/S (log2)” value in series [4] stood at 0.107.

The values are drawn from the supplement of paper PMC5998384.
